Measurements reported in patent US20180312579A1 (Genentech, published 2018).

T1: human RSPO3 with C-terminal HA tag, stably expressed in 293 cells (human, UniProt Q9BXY4 22-272)
T1 construct: Whole open reading frame expressed in HEK-293 cells (high, medium, low); FFPE pellets; also called hRSPO3; RSPO3 Hi
T1 sequence: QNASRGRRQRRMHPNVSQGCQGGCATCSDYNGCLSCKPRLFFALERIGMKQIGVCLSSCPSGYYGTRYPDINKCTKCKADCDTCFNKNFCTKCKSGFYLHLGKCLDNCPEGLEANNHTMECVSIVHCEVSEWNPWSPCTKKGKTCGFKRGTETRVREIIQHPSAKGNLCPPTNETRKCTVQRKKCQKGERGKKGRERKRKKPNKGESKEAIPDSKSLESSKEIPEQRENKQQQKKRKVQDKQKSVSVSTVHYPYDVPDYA

T2: cynomolgus RSPO3 (cynomolgus, UniProt A0A2K5UTQ7 22-273)
T2 sequence: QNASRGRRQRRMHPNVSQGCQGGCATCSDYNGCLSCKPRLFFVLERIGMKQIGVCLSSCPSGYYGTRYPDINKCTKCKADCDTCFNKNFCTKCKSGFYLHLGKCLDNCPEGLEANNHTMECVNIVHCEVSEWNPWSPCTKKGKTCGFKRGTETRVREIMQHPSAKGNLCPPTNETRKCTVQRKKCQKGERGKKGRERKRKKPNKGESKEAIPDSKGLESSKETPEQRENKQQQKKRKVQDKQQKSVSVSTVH

T3: recombinant human RSPO3 (human, UniProt Q9BXY4 22-272)
T3 sequence: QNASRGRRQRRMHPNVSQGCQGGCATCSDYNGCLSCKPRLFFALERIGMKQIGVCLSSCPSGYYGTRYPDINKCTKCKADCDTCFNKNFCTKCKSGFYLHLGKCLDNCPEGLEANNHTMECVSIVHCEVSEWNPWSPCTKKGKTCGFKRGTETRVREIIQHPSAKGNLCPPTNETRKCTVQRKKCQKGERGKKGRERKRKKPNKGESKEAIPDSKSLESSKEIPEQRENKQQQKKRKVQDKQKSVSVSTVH

T4: mouse RSPO3 (mouse, UniProt Q2TJ95 22-277, limits assumed)
T4 sequence (looked up): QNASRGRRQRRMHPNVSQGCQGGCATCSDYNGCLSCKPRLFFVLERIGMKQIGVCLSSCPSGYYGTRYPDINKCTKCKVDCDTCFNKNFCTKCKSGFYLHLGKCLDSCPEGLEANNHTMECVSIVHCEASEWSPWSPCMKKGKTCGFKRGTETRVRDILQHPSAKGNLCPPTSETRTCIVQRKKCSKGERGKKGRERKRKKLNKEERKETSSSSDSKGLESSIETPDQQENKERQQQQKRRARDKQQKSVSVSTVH

T5: FLAG-tagged human RSPO3 (Genentech) (human, UniProt Q9BXY4 22-272)
T5 construct: also called hRSPO3; RSPO3 coated plates; not shown: FLAG tag
T5 sequence: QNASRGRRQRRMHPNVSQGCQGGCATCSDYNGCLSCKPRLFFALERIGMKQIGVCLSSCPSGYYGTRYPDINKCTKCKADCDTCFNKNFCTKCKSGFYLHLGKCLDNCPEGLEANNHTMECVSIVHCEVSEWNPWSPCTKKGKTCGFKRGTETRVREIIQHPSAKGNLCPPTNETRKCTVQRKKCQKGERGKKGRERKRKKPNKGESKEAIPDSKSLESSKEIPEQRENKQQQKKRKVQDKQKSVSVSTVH

T6: human RSPO2 L186P variant (human, UniProt Q6UXX9 22-243)
T6 chain: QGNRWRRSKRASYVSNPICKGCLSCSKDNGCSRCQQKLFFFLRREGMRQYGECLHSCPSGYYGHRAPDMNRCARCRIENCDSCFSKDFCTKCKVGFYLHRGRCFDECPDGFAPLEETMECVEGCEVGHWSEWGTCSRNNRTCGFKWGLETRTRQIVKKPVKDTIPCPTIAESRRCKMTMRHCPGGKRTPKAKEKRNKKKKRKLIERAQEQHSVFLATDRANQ


Columns and labels:
[1] = target: T1, human RSPO3 with C-terminal HA tag, …; test: IHC, FFPE 293 cell pellet, RSPO3 Low
[2] = target: T7, human RSPO2 with C-terminal HA tag, stably expressed in 293 cells (human, UniProt Q6UXX9 22-243); test: IHC, FFPE 293 cell pellet, RSPO2 Hi
T7 construct: Whole open reading frame was expressed from a lentiviral vector in HEK-293 cells sorted for high, medium or low expression; formalin-fixed paraffin-embedded pellets; also called hRSPO2; RSPO2 Hi

[3] = target: T8, human RSPO4 with C-terminal HA tag, stably expressed in 293 cells (human, UniProt Q2I0M5 20-234); test: IHC, FFPE 293 cell pellet, RSPO4 Hi; - = not significant staining
T8 construct: also called hRSPO4; RSPO4 Hi

[4] = target: T1, human RSPO3 with C-terminal HA tag, …; test: IHC, FFPE 293 cell pellet, RSPO3 Hi
[5] = target: T1, human RSPO3 with C-terminal HA tag, …; test: IHC, FFPE 293 cell pellet, RSPO3 Med
recombinant human RSPO2 = recombinant human RSPO2 (human, UniProt Q6UXX9 22-243); test: cell-based or functional assay
cynomolgus RSPO3 = target: T2, cynomolgus RSPO3; test: cell-based or functional assay
cynomolgus RSPO2 = cynomolgus RSPO2 (cynomolgus, UniProt G7PCH9 22-243); test: cell-based or functional assay
mouse RSPO2 = mouse RSPO2 (mouse, UniProt Q8BFU0 22-205, limits assumed); test: cell-based or functional assay
recombinant human RSPO3 = target: T3, recombinant human RSPO3; test: cell-based or functional assay
mouse RSPO3 = target: T4, mouse RSPO3; test: cell-based or functional assay
[6] = target: T5, FLAG-tagged human RSPO3 (Genentech); test: competitive binding ELISA: titrated against biotinylated RNF43-Flag (RNF43-ECD) binding to plate-coated hRSPO3; signal = bound RNF43, normalized OD
[7] = target: T7, human RSPO2 with C-terminal HA tag, …; test: IHC, FFPE 293 cell pellet, RSPO2 Med
[8] = target: T9, FLAG-tagged human RSPO2 (Genentech) (human, UniProt Q6UXX9 22-243); test: competitive binding ELISA: antibody titrated against LGR4-Fc (LGR4-ECD) binding to plate-coated hRSPO2; signal = bound LGR4-Fc, OD(450/630)/OD no antibody
T9 construct: also called hRSPO2; RSPO2 coated plates; not shown: FLAG tag
Method: (§1) To measure the activity of anti-RSPO antibodies in blocking the binding of LGR4 and -5 ECDs to RSPOs, MaxiSorp 384-well microwell plates (Thermo Scientific Nunc, Roskilde, Denmark) were coated with 25 ul/well of 0.5 μg/ml hRSPO2 or hRSPO3 (Genentech) in 50 mM carbonate buffer, pH 9.6, overnight at 4° C. Plates were blocked with at 80 ul/well of 0.5% bovine serum albumin, 15 parts per million Proclin 300 in phosphate buffered saline (PBS), pH 7.4, for 1 hour. Serially diluted anti-RSPO antibodies ([…] in […] serial dilution plus buffer blank) containing 0.1 μg/ml LGR4-Fc or 0.015 μg/ml LGR5-Fc in assay buffer (0.5% BSA, 0.05% polysorbate 20, 15 parts per million Proclin 300 in PBS) were added to the plates at 25 ul/well. After a 2-hour incubation, LGR4-Fc and LGR5-Fc bound to the plates were detected using peroxidase labeled goat F(ab′)2 anti-human Fc (Jackson ImmunoResearch, West Grove, Pa.). After a 1 hour incubation, the substrate 3,3′,5,5′-tetramethyl benzidine (Moss Inc., Pasadena, Md.) was added to the plates and the reaction was stopped by adding 1 M phosphoric acid. Plates were washed with PBS, pH 7.4, containing 0.05% tween 20, between steps and all the incubation steps following the coating step were performed at room temperature on an orbital shaker. Absorbance was read at 450 nm on a multiskan Ascent reader (Thermo Scientific, Hudson, N.H.).

[9] = target: T5, FLAG-tagged human RSPO3 (Genentech); test: competitive binding ELISA: antibody titrated against LGR4-Fc (LGR4-ECD) binding to plate-coated hRSPO3; signal = bound LGR4-Fc, OD(450/630)/OD no antibody
Method: as §1

[10] = target: T10, human RSPO1 with C-terminal HA tag, stably expressed in 293 cells (human, UniProt Q2MKA7 21-263); test: IHC, FFPE 293 cell pellet, RSPO1 Hi; - = not significant staining
T10 construct: also called hRSPO1; RSPO1 Hi

[11] = target: T7, human RSPO2 with C-terminal HA tag, …; test: IHC, FFPE 293 cell pellet, RSPO2 Low
[12] = target: T9, FLAG-tagged human RSPO2 (Genentech); test: competitive binding ELISA: titrated against biotinylated RNF43-Flag (RNF43-ECD) binding to plate-coated hRSPO2; signal = bound RNF43, normalized OD
[13] = target: T6, human RSPO2 L186P variant; test: cell-based or functional assay
[14] = target: T1, human RSPO3 with C-terminal HA tag, …; test: IHC, FFPE 293 cell pellet, RSPO3 Hi; - = not significant staining

mouse RSPO2, sequence (Q8BFU0 22-205 limits assumed): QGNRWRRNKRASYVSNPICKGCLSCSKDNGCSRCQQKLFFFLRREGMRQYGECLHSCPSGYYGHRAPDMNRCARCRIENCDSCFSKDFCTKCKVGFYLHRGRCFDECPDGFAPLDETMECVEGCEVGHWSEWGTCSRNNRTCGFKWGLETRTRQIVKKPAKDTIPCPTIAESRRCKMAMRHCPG
T10 sequence (Q2MKA7 other isoform, or with tags, fused parts or gaps limits assumed): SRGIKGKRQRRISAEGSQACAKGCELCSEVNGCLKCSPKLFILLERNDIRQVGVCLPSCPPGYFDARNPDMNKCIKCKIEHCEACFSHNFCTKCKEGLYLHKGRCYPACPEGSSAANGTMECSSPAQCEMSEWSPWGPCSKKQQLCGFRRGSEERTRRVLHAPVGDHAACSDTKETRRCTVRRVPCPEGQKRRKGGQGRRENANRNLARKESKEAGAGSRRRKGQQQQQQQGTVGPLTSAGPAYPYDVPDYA
T8 sequence (Q2I0M5 other isoform, or with tags, fused parts or gaps limits assumed): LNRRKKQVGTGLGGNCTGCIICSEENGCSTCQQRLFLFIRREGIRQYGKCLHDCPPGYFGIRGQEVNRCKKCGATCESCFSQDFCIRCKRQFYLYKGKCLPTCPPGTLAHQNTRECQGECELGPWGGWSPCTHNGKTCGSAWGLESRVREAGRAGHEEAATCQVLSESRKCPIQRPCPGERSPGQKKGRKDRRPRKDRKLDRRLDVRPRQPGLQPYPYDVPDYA

percentage of cells staining [2] [%] | binding result [3] | IC50, WNT luciferase reporter, bivalent antibody (recombinant human RSPO2) [pM] | IC50, WNT luciferase reporter, bivalent antibody (cynomolgus RSPO3) [pM] | IC50, WNT luciferase reporter, bivalent antibody (cynomolgus RSPO2) [pM] | IC50, WNT luciferase reporter, bivalent antibody (mouse RSPO2) [pM] | IC50, WNT luciferase reporter, bivalent antibody (recombinant human RSPO3) [pM] | IC50, WNT luciferase reporter, bivalent antibody (mouse RSPO3) [pM] | percentage of cells staining [7] [%] | binding result [10] | percentage of cells staining [11] [%] | IC50 (read off the curve) [12] [µg/mL] | IC50 (read off the curve), WNT reporter RLU stimulated by 38 pM rhRSPO2 L186P [13] [pM] | binding result [14] | Binder | also measured
70 | no binding | 9800 | 0.2 | 2700 | 24000 | 0.01 | 0.4 | 40 | no binding | 10 | ~0.1 |  |  | 26E11 (antibody, V domains shown, also called monoclonal antibody 26E11; anti-RSPO2/3 antibody) VH: EVQLQESGPSLVKPSQTLSLTCSVTGDSITSGYWSWIRKFPGNKLEFMGYISFSGKTYYIPSLKSRVSITRDTSKNQYYLQLNSVTTEDTATYYCATYHGYGGPWFAYWGQGTLVTVSS VL: DIKMTQSPSSMYASLGERVTITCKASQDIDSYLSWFQQKPGKSPKTLIYLTNRLIDGVPSRFSGSGSGQDYSLTINSLEYEDMGIYYCLQYDEFPVTFGAGTRLEIK | percentage of cells staining [1]: 50%; percentage of cells staining [4]: 90%; percentage of cells staining [5]: 70%; IC50 (read off the curve) [6]: ~0.08 µg/mL; IC50 (read off the curve) [8]: ~0.09 µg/mL; IC50 (read off the curve) [9]: ~0.1 µg/mL
> 95 | no binding | 12 | > 500000 | 13 | 44 | > 500000 | > 500000 | 50 | no binding | < 5 | ~1 | ~20 | no binding | 36D2 (antibody, V domains shown, also called monoclonal antibody 36D2) VH: QIQLQESGPGLVKPSQSLSLTCSVTGNSITSSDWSWIRQFPGKKLEWMGYMNYGGGTYYNPSLENRISITRDTSKNQFFLHLKSVTTEDTATYYCARERPHPYAYFDVWGQGIQVTVSS VL: ELVFTQPQSVSGSLGQEISISCTRSSGNIGSNYVSWYQQQSSNKPRLLIYKFDQRPSGVPDRFSGSTDSSSNSGILTISRLQPEDEGDYYCLSGYDKYVFGSGTQLTLL | 
80 | no binding | 0.4 | > 500000 | 0.5 | 2.2 | > 500000 | > 500000 | 40 | no binding | 30 | ~0.1 | ~0.6 | no binding | 1A1 (antibody, V domains shown, also called monoclonal antibody 1A1) VH: EVQLVESGGGLVKPEGSLKLSCVASGFTFSDYFMSWVRQAPGQGLEWVAHIYTKTYNYATYYSGSVKGRFSISRDDSRNMVYLQMNNLRTEDTATYYCTTDEDWYFDFWGQGTQVTVSS VL: QPVLTQSPSVSASLGASVKLTCTLSSQHSTNYIEWYQQHPDKSPKFLMQVRDGSHSKGDGTPDRFSGSSSGAHRYLSISNLQLEDEAIYYCGLSDVSLYLFGSGTQLTLL | EC50 (read off the curve) [8]: ~0.07 µg/mL
95 | no binding |  |  |  |  |  |  | 60 | no binding | 40 |  |  | no binding | 49G5 (antibody, V domains shown, also called monoclonal antibody 49G5) VH: QVQLKESGPGLVQPSQTLSLTCTVSGFSLTSYNIHWVRQPPGKGLEWMGAVWRGGGTYYNSNLKSRVIITRDTSKSQVLLKLNNLQHEDTAMYYCAREELRYVYFDVWGQGIQVTVSS VL: QPLLTQSPSVSASLGASVKLTCTLSSQYNTYYIEWYQQHPDKSPKFLMQLSDGSHSKGDGIPDRFSGSSSGAHRYLSISNLQLEDEAIYYCGVSDVSLYVFGSGTQLTVL | 
